For two molecules, Kd results are on record in patent publication US20210060068A1 (published 2021).

Common to all, as to assay: SPR
Experiment [1] has as its target T1, wild-type mouse IL-2Rβ (UniProt P16297 27-240).
T1 chain: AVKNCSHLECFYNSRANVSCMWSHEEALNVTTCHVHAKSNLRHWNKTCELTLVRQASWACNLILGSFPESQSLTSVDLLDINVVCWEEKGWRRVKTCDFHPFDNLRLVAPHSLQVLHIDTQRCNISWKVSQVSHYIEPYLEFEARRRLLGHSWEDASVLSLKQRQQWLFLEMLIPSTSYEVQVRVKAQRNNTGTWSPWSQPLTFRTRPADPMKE

Experiment [2] concerns the target 160.
Experiment [3] concerns the target 182.
Experiment [4] concerns the target 148.
Experiment [5] deals with 145.
In experiment [6] the target is 161.
In experiment [7] the target is 180.
Experiment [8] concerns the target 176.
Experiment [9] has as its target 181.
The target in experiment [10] is 175.
Experiment [11] deals with 149.
Experiment [12] addresses 147.
For experiment [13], the target named is 170.
The target of experiment [14] is 162.
The target in experiment [15] is 151.
In experiment [16] the target is 163.
The target of experiment [17] is 157.
In experiment [18] the target is 150.
Experiment [19] addresses 172.
Experiment [20] concerns the target 177.
The target of experiment [21] is 146.
Experiment [22] addresses 165.

B1: wild-type mouse IL-2 (ligand)
chain: APTSSSTSSSTAEAQQQQQQQQQQQQHLEQLLMDLQELLSRMENYRNLKLPRMLTFKFYLPKQATELKDLQCLEDELGPLRHVLDLTQSKSFQLEDAENFISNIRVTVVKLKGSDNTFECQFDDESATVVDFLRRWIAFCQSIISTSPQ
On to B1, for which the Kd in experiment [1] was determined as 4000 nM.

B2: orthoIL-2Rβ (receptor)
chain: AVKNCSHLECFYNSRANVSCMWSHEEALNVTTCHVHAKSNLRHWNKTCELTLVRQASWACNLILGSFPESQSLTSVDLLDINVVCWEEKGWRRVKTCDFHPFDNLRLVAPHSLQVLHIDTQRCNISWKVSQVSDFIEPYLEFEARRRLLGHSWEDASVLSLKQRQQWLFLEMLIPSTSYEVQVRVKAQRNNTGTWSPWSQPLTFRTRPADPMKE
Take B2: the Kd in [2] amounted to 1000 nM; in experiment [3], 3000 nM; in experiment [4] it was 4000 nM; in experiment [5], 4000 nM; in experiment [6], 3000 nM; in experiment [7] it was 6000 nM. The Kd in experiment [8] is 1000 nM; in [9], 5000 nM; in [10], 4000 nM; in experiment [11], 4000 nM; in experiment [12] it was 8000 nM; in experiment [13] it was 2000 nM. Moreover, the Kd in experiment [14] is 3000 nM; in experiment [15], 2000 nM; in experiment [16], 1000 nM; in experiment [17] it was 4000 nM; in experiment [18], 3000 nM; in [19], 2000 nM. The figures for the Kd in experiment [20], in [21] and in experiment [22] were 3000 nM, 600 nM and 1000 nM, respectively.

One may read the Kd as the concentration at which binding is half-saturated. The low end stands for tighter binding, the high end for weaker binding.
